Test results reported in US20210388110A1 (published 2021).
Changes are numbered by the printed parent chain. One block for each binder: values may come before it.

Target: T1, soluble human GPC3 (human, UniProt P51654 25-563, limits assumed)
T1 construct: also called glypican 3
Experiment: SPR (Biacore), single-arm antibody, soluble human GPC3

T1 sequence (P51654 other isoform, or with tags, fused parts or gaps limits assumed, form in doubt): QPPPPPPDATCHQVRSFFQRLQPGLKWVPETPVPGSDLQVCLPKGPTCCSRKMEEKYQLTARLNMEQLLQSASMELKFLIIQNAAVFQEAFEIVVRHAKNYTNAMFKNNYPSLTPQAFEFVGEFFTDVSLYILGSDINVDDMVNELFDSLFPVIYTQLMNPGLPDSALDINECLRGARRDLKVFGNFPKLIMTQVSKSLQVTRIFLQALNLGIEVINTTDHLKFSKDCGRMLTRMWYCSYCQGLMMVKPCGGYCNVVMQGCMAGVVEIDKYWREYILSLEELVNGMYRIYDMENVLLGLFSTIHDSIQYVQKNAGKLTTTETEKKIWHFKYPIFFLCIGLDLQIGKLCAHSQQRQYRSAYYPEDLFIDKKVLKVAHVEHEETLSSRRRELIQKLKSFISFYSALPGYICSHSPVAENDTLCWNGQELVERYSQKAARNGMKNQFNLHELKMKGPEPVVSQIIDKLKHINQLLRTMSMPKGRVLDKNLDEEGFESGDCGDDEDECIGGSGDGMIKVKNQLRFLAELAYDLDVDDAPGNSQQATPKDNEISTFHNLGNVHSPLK

B1: GCH005-G1dh/none-Hi-Kn010G3/L0000-k0 (antibody, human IgG1, kappa)
heavy: not shown
chain: EPKSSDKTHTCPPCPAPELLGGPSVFLFPPKPKDTLMISRTPEVTCVVVDVSHEDPEVKFNWYVDGVEVHNAKTKPREEQYNSTYRVVSVLTVLHQDWLNGKEYKCKVSNKALPAPIEKTISKAKGQPREPQVCTLPPSRDELTKNQVSLWCLVKGFYPSDIAVEWESNGQPENNYKTTPPVLDSDGSFFLYSKLTVDKSRWQQGNVFSCSVMHEALHNRYTQKSLSLSP
light: DIVMTQSPLSLPVTPGEPASISCRSSQSLVHSNRNTYLHWYQQKPGQAPRLLIYKVSNRFSGVPDRFSGSGSGTDFTLKISRVEAEDVGVYYCGQGTQVPYTFGQGTKLEIKRTVAAPSVFIFPPSDEQLKSGTASVVCLLNNFYPREAKVQWKVDNALQSGNSQESVTEQDSKDSTYSLSSTLTLSKADYEKHKVYACEVTHQGLSSPVTKSFNRGEC
notes: single-arm antibody
Kd: 5.32 nM

B3: GCH012-G1dh/none-Hi-Kn010G3/L0000-k0 (antibody, human IgG1, kappa)
heavy: not shown
chain: B1 chain
light: B1 light
notes: single-arm antibody
Kd: 5.4 nM

B6: H0610-G1dh/none-Hi-Kn010G3/L0232-k0 (antibody, human IgG1, kappa)
heavy: not shown
chain: B1 chain
light: B1 light with Q27E
notes: single-arm antibody
Kd: 5.38 nM

B7: GCH067-G1dh/none-Hi-Kn010G3/L0000-k0 (antibody, human IgG1, kappa)
heavy: not shown
chain: B1 chain
light: B1 light
notes: single-arm antibody
Kd: 5.24 nM

B8: GCH059-G1dh/none-Hi-Kn010G3/L0000-k0 (antibody, human IgG1, kappa)
heavy: not shown
chain: B1 chain
light: B1 light
notes: single-arm antibody
Kd: 5.7 nM

B9: H0610-G1dh/none-Hi-Kn010G3/L0091-k0 (antibody, human IgG1, kappa)
heavy: not shown
chain: B1 chain
light: B1 light with H39N
notes: single-arm antibody
Kd: 5.43 nM

B11: H0610-G1dh/none-Hi-Kn010G3/L0046-k0 (antibody, human IgG1, kappa)
heavy: not shown
chain: B1 chain
light: B1 light with S32V
notes: single-arm antibody
Kd: 5.45 nM

B12: GCH008-G1dh/none-Hi-Kn010G3/L0000-k0 (antibody, human IgG1, kappa)
heavy: not shown
chain: B1 chain
light: B1 light
notes: single-arm antibody
Kd: 5.55 nM

B13: GCH100-G1dh/none-Hi-Kn010G3/L0000-k0 (antibody, human IgG1, kappa)
heavy: not shown
chain: B1 chain
light: B1 light
notes: single-arm antibody
Kd: 5.39 nM

B14: H0610-G1dh/none-Hi-Kn010G3/L0138-k0 (antibody, human IgG1, kappa)
heavy: not shown
chain: B1 chain
light: B1 light with S61H
notes: single-arm antibody
Kd: 5.24 nM

B17: H0610-G1dh/none-Hi-Kn010G3/L0063-k0 (antibody, human IgG1, kappa)
heavy: not shown
chain: B1 chain
light: B1 light with N35E
notes: single-arm antibody
Kd: 6.03 nM

B18: H0610-G1dh/none-Hi-Kn010G3/L0089-k0 (antibody, human IgG1, kappa)
heavy: not shown
chain: B1 chain
light: B1 light with H39L
notes: single-arm antibody
Kd: 5.24 nM

B21: GCH055-G1dh/none-Hi-Kn010G3/L0000-k0 (antibody, human IgG1, kappa)
heavy: not shown
chain: B1 chain
light: B1 light
notes: single-arm antibody
Kd: 5.6 nM

B23: GCH054-G1dh/none-Hi-Kn010G3/L0000-k0 (antibody, human IgG1, kappa)
heavy: not shown
chain: B1 chain
light: B1 light
notes: single-arm antibody
Kd: 5.3 nM

B24: H0610-G1dh/none-Hi-Kn010G3/L0104-k0 (antibody, human IgG1, kappa)
heavy: not shown
chain: B1 chain
light: B1 light with N58F
notes: single-arm antibody
Kd: 5.9 nM

B25: GCH057-G1dh/none-Hi-Kn010G3/L0000-k0 (antibody, human IgG1, kappa)
heavy: not shown
chain: B1 chain
light: B1 light
notes: single-arm antibody
Kd: 5.61 nM

B26: H0610-G1dh/none-Hi-kn010G3/L0106-k0 (antibody, human IgG1, kappa)
heavy: not shown
chain: B1 chain
light: B1 light with N58H
notes: single-arm antibody
Kd: 5.66 nM

B27: GCH068-G1dh/none-Hi-Kn010G3/L0000-k0 (antibody, human IgG1, kappa)
heavy: not shown
chain: B1 chain
light: B1 light
notes: single-arm antibody
Kd: 6.23 nM

B28: H0610-G1dh/none-Hi-Kn010G3/L0109-k0 (antibody, human IgG1, kappa)
heavy: not shown
chain: B1 chain
light: B1 light with N58M
notes: single-arm antibody
Kd: 5.7 nM

B29: H0610-G1dh/none-Hi-kn010G3/L0137-k0 (antibody, human IgG1, kappa)
heavy: not shown
chain: B1 chain
light: B1 light with S61G
notes: single-arm antibody
Kd: 5.87 nM

B30: GCH094-G1dh/none-Hi-Kn010G3/L0000-k0 (antibody, human IgG1, kappa)
heavy: not shown
chain: B1 chain
light: B1 light
notes: single-arm antibody
Kd: 5.89 nM

B32: H0610-G1dh/none-Hi-Kn010G3/L0132-k0 (antibody, human IgG1, kappa)
heavy: not shown
chain: B1 chain
light: B1 light with F60V
notes: single-arm antibody
Kd: 5.65 nM

B33: H0610-G1dh/none-Hi-Kn010G3/L0129-k0 (antibody, human IgG1, kappa)
heavy: not shown
chain: B1 chain
light: B1 light with F60R
notes: single-arm antibody
Kd: 5.28 nM

B36: H0610-G1dh/none-Hi-Kn010G3/L0126-k0 (antibody, human IgG1, kappa)
heavy: not shown
chain: B1 chain
light: B1 light with F60N
notes: single-arm antibody
Kd: 5.62 nM

B37: H0610-G1dh/none-Hi-Kn010G3/L0062-k0 (antibody, human IgG1, kappa)
heavy: not shown
chain: B1 chain
light: B1 light with N35D
notes: single-arm antibody
Kd: 5.28 nM

B39: GCH026-G1dh/none-Hi-Kn010G3/L0000-k0 (antibody, human IgG1, kappa)
heavy: not shown
chain: B1 chain
light: B1 light
notes: single-arm antibody
Kd: 5.17 nM

B43: H0610-G1dh/none-Hi-Kn010G3/L0069-k0 (antibody, human IgG1, kappa)
heavy: not shown
chain: B1 chain
light: B1 light with N35M
notes: single-arm antibody
Kd: 5.32 nM

B44: H0610-G1dh/none-Hi-Kn010G3/TR01L005-k0 (antibody, human IgG1, kappa)
heavy: not shown
chain: B1 chain
light: B1 light with Q42L, A48S, R50Q, L109V, K112E
notes: single-arm antibody
Kd: 5.37 nM

B45: GCH032-G1dh/none-Hi-Kn010G3/L0000-k0 (antibody, human IgG1, kappa)
heavy: not shown
chain: B1 chain
light: B1 light
notes: single-arm antibody
Kd: 5.74 nM

More lines, now with the values ahead:

Kd: 5.09 nM
B2: GCH034-G1dh/none-Hi-Kn010G3/L0000-k0 (antibody, human IgG1, kappa)
heavy: not shown
chain: B1 chain
light: B1 light
notes: single-arm antibody

Kd: 4.31 nM
B4: GCH056-G1dh/none-Hi-Kn010G3/L0011-k0 (antibody, human IgG1, kappa)
heavy: not shown
chain: B1 chain
light: B1 light with S28P
notes: single-arm antibody

Kd: 5.03 nM
B5: GCH056-G1dh/none-Hi-Kn010G3/L0000-k0 (antibody, human IgG1, kappa)
heavy: not shown
chain: B1 chain
light: B1 light
notes: single-arm antibody

Kd: 4.38 nM
B10: H0610-G1dh/none-Hi-Kn010G3/L0147-k0 (antibody, human IgG1, kappa)
heavy: not shown
chain: B1 chain
light: B1 light with S61V
notes: single-arm antibody

Kd: 4.48 nM
B15: H0610-G1dh/none-Hi-Kn010G3/L0180-k0 (antibody, human IgG1, kappa)
heavy: not shown
chain: B1 chain
light: B1 light with V99N
notes: single-arm antibody

Kd: 4.94 nM
B16: GCH023-G1dh/none-Hi-Kn010G3/L0000-k0 (antibody, human IgG1, kappa)
heavy: not shown
chain: B1 chain
light: B1 light
notes: single-arm antibody

Kd: 5.08 nM
B19: H0610-G1dh/none-Hi-Kn010G3/TR01L003-k0 (antibody, human IgG1, kappa)
heavy: not shown
chain: B1 chain
light: B1 light with L109V, K112E
notes: single-arm antibody

Kd: 4.78 nM
B20: H0610-G1dh/none-Hi-Kn010G3/L0139-k0 (antibody, human IgG1, kappa)
heavy: not shown
chain: B1 chain
light: B1 light with S61I
notes: single-arm antibody

Kd: 4.84 nM
B22: H0610-G1dh/none-Hi-Kn010G3/L0144-k0 (antibody, human IgG1, kappa)
heavy: not shown
chain: B1 chain
light: B1 light with S61Q
notes: single-arm antibody

Kd: 5.08 nM
B31: H0610-G1dh/none-Hi-Kn010G3/L0123-k0 (antibody, human IgG1, kappa)
heavy: not shown
chain: B1 chain
light: B1 light with F60K
notes: single-arm antibody

Kd: 4.82 nM
B34: H0610-G1dh/none-Hi-Kn010G3/L0113-k0 (antibody, human IgG1, kappa)
heavy: not shown
chain: B1 chain
light: B1 light with N58T
notes: single-arm antibody

Kd: 5.04 nM
B35: H0610-G1dh/none-Hi-Kn010G3/L0136-k0 (antibody, human IgG1, kappa)
heavy: not shown
chain: B1 chain
light: B1 light with S61F
notes: single-arm antibody

Kd: 4.92 nM
B38: GCH022-G1dh/none-Hi-Kn010G3/L0000-k0 (antibody, human IgG1, kappa)
heavy: not shown
chain: B1 chain
light: B1 light
notes: single-arm antibody

Kd: 4.92 nM
B40: H0610-G1dh/none-Hi-Kn010G3/L0117-k0 (antibody, human IgG1, kappa)
heavy: not shown
chain: B1 chain
light: B1 light with F60A
notes: single-arm antibody

Kd: 5.14 nM
B41: H0610-G1dh/none-Hi-Kn010G3/L0043-k0 (antibody, human IgG1, kappa)
heavy: not shown
chain: B1 chain
light: B1 light with S32N
notes: single-arm antibody

Kd: 5.13 nM
B42: GCH061-G1dh/none-Hi-Kn010G3/L0000-k0 (antibody, human IgG1, kappa)
heavy: not shown
chain: B1 chain
light: B1 light
notes: single-arm antibody

Kd: 5.05 nM
B46: GCH025-G1dh/none-Hi-Kn010G3/L0000-k0 (antibody, human IgG1, kappa)
heavy: not shown
chain: B1 chain
light: B1 light
notes: single-arm antibody

Kd: 4.92 nM
B47: H0610-G1dh/none-Hi-Kn010G3/L0187-k0 (antibody, human IgG1, kappa)
heavy: not shown
chain: B1 chain
light: B1 light with V99Y
notes: single-arm antibody
